The source of these data is patent US7314726B2, “Beta secretase exosite binding peptides and methods for identifying beta secretase modulators” (Bristol-Myers Squibb Company, priority 2002, dated 2008).

Where “and” joins values, the source holds several entries; their conditions need not be identical. Equal entries are not always repeated. Where two headings read alike, the source gives them in different places. Square brackets hold non-standard residues; d marks the D form. Peptide text beside a SMILES is read from it. Bpa = N[C@@H](Cc1ccc(C(=O)c2ccccc2)cc1)C(=O)O; Alexa488 = Alexa Fluor 488 fluorescent label

The Kd is the equilibrium constant for the complex coming apart. As a reminder, the IC50 is the concentration needed to halve the response being measured.

In data set [1] the target is T1, BACE (Homo sapiens, UniProt P56817). Description: Phage ELISA of phage-displayed peptides on immobilised BACE. It counts as binding. On the set-up: The cDNA for the catalytic domain of human BACE (residues 1-460) was PCR-amplified; human IgG1 heavy chain (C, cleaved yes); thrombin cleavage site (C); made in house; host or cells: CHO DG44 cells (stably transfected, secreted). To be noted: clones from solid phase panning at pH 7.0. The procedure:
Two highly selected and homologous 12 mer phage peptides bound BACE specifically and reproducibly in phage-ELISA tests. Bristol-Myers Squibb fUSE5-based C4C, C6C, 5- and 15 mer libraries, and M13-based C7C libraries, and 7- and 12 mer libraries obtained from New England Biolabs, Beverly, Mass. were panned for three cycles against BACE (produced as described herein in Example 3). BACE was immobilized by coating at 0.5 μg/well in 4 wells of Dynex Immulon 4HBX plates overnight at 4° C. in 0.1M NaHCO3 buffer, pH 9.0. Panning was by standard procedures at room temperature that involved blocking wells with 2% BSA in PBS and elution with 0.1M HCL, pH 2.2. The vector NTI alignment tool and visual inspection of sequences were employed to analyze the selected peptides.
After sequencing approximately 20-50 clones from each library after three cycles of selection, we prepared essentially all possible candidate clones (39 clones in total) for phage-ELISA to obtain direct evidence for affinity to BACE. […] We therefore sequenced additional 12 mer clones to try to find additional candidate clones. […] This […] (SEQ ID NO:20) peptide is homologous to […] (SEQ ID NO:19) and consistent with the specific binding of both those peptides to BACE. The […] (SEQ ID NO:20) peptide and […] (SEQ ID NO:19) peptides were the two most efficiently recovered clones with 13 and 9 copies, respectively. […]
(An ELISA detects its analyte on a solid surface through an enzyme-linked reagent.)
Target sequence in this assay (P56817 46-460 limits assumed): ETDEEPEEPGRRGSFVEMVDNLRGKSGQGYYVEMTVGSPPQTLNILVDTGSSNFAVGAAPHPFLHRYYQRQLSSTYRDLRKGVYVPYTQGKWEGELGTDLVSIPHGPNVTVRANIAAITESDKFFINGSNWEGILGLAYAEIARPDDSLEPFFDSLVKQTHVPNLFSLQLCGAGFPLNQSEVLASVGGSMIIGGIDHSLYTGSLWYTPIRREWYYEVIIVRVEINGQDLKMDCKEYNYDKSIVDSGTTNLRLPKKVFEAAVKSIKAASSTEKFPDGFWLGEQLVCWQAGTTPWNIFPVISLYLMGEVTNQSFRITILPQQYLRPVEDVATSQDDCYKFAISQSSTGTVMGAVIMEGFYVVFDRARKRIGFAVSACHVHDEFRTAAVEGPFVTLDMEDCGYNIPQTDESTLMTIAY

Data set [2] addresses T1, BACE. The data set is described as above. It counts as binding. More on the design: The cDNA for the catalytic domain of human BACE (residues 1-460) was PCR-amplified; human IgG1 heavy chain (C, cleaved yes); thrombin cleavage site (C); made in house; host or cells: CHO DG44 cells (stably transfected, secreted). To be noted: peptides from solution phase panning; tested at pH 5.0.
Target sequence in this assay (P56817 46-460 limits assumed): as above

Data set [3] is described as follows: Solubility of Bpa-mutated peptides in the competition assay. It counts as physicochemical. To be noted: FIG. 11, Bpa scan; inhibition under determined.
Data set [4] addresses T2, catalytic domain of human BACE expressed in a CHO cell line (Homo sapiens, UniProt P56817).
T2 construct: The cDNA for the catalytic domain of human BACE (residues 1-460) was PCR-amplified; human IgG1 heavy chain (C, cleaved yes); thrombin cleavage site (C); made in house; host or cells: CHO DG44 cells (stably transfected, secreted)
The experiment in a line: Fluorescently labeled EBP binding to BACE, fluorescence anisotropy. To be noted: for Kd: pH 4.5 (50 mM acetate), 25° C., 1:1 binding model, read-out: binding constant (Kd) of labeled EBP. The procedure: An assay to evaluate the binding of BACE to EBPs labeled with a fluorescent molecule (for example, but not limited to Alexa488) was developed. This assay uses the catalytic domain of human BACE expressed in a CHO cell line (according to Example 3) and labeled EBPs such as Molecule X shown in FIG. 4. The change in fluorescent anisotropy of the EBP peptide upon binding to BACE is monitored.
Peptides were dissolved in 100% DMSO (dimethyl sulfoxide) at 10 mM concentration, and then diluted 10-fold into deionized water. The concentration of the labeled peptides was determined by their absorbance at 495 nm (ε=71000 cm^−1M^−1). The concentration of selected unlabeled peptides was determined by their Tyr absorbance at 276 nm (ε=1390 cm^−1M^−1 per Tyr residue).
The binding was carried out at pH 7.1 (PBS buffer) and pH 4.5 (50 mM acetate buffer) in the presence of 1% DMSO. Fluorescence anisotropy was measured at 25° C. in an AVIV fluorometer. The excitation and emission wavelengths were set to 495 and 519 nm, respectively. The excitation and emission slit width were 4 and 10 nm, respectively. A concentrated BACE stock was used to titrate a 300 μl solution of 10 nM labeled EBP. The final BACE concentration ranges from 10 to 5000 nM. After the addition of BACE, the solution was mixed for 10 times with a pipettor. The fluorescence anisotropy was averaged over a 5 minute period.
The change in anisotropy was plotted against the BACE concentration (see, for example, FIG. 5). The Kd of the labeled EBP as well as the initial (r0) and final anisotropy (rb) of the labeled EBP were calculated from curve fitting using the program Kaleidagraph. The equation used to fit the binding data is identical to equation 1 in Lai et al., (2000) Arch. Biochem. Biophys. 381:278-284.
On the technique in general: Polarisation of emitted light reports the rotation of a fluorescent probe.

Data set [5] addresses T3, catalytic domain of BACE purified from E. coli cells (Homo sapiens, UniProt P56817).
T3 construct: the catalytic domain of BACE purified from E. coli cells; made in house; host or cells: E. coli
The experiment in a line: Binding of labeled EBP to BACE purified from E. coli cells. The conditions noted are these: compared with BACE purified from CHO cells. The procedure: Binding of Molecule Y1 to the catalytic domain of BACE purified from E. coli cells was carried out to determine the effect of glycosylation on the EBP binding.

Data set [6] concerns the target T1, BACE. Description: BACE cleavage assay with MCA-[…](-dnp)-COOH substrate, HPLC analysis. It counts as biochemical. To be noted: 0.1 nM BACE, 25 μM substrate peptide, 60 minutes at 25° C.; read-out: IC50, inhibition of proteolytic activity of BACE. The procedure:
Molecule Y3 was tested in a BACE cleavage assay using the peptide MCA-[…](-dnp)-COOH (SEQ ID NO:107) as a substrate. The assay was carried out essentially as described in Mallender et al., (2001) Mol. Pharmacol. 59:619-626 and in Marcinkeviciene et al., (2001) J. Biol. Chem. 276: 23790-23794. A concentration of 0.1 nM BACE was incubated with Molecule Y3 at various concentrations for 15 minutes before substrate peptide was added to a final concentration of 25 μM. The reaction was allowed to proceed for 60 minutes at 25° C. before it was stopped by boiling. The reaction mixture was separated on a C18 column using reverse phase HPLC (Waters, Milford, Mass.). The IC50 value was calculated using the Langmuir isotherm equation (Copeland, R. A., Enzymes: A Practical Introduction to Structure, Mechanism, and Data Analysis, (2nd ed), Wiley-VCH, New York, N.Y. (2000)).
Target sequence in this assay (P56817 46-457 limits assumed): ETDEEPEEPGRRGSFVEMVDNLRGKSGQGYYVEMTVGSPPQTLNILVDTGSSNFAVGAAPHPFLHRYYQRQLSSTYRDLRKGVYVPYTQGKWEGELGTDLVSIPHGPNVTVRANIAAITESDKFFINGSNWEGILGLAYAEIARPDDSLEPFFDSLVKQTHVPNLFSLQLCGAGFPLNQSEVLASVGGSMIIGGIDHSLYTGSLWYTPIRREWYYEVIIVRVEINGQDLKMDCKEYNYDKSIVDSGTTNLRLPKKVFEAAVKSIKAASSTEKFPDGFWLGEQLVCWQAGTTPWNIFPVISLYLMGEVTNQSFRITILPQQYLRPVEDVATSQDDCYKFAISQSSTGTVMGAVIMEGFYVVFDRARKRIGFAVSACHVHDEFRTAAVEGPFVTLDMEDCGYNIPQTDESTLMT

T2 sequence (P56817 46-460 limits assumed): as the sequence (P56817 46-460 limits assumed) above
T3 sequence (P56817 46-457 limits assumed): as the sequence (P56817 46-457 limits assumed) above

With Ac-ALYPYFLPISAK-NH2 [BMS-561877], in data set [1], the “phage ELISA binding to BACE” value is on record as “specific binding to BACE”. As to TAEYESRTARTAPPAPTQHWPFFIRST, in data set [2], the “phage ELISA binding to BACE” value was “strong and specific binding”. For `CC[C@H](C)[C@H](NC(=O)[C@H](Cc1ccccc1)NC(=O)[C@H](Cc1ccc(O)cc1)NC(=O)[C@H](Cc1ccc(C(=O)c2ccccc2)cc1)NC(=O)[C@H](Cc1ccc(O)cc1)NC(C)=O)C(=O)N1CCC[C@H]1C(=O)N[C@@H](CC(C)C)C(N)=O` [P6B] (Ac-Y[Bpa]YFIPL-NH2), the solubility result in data set [3] was “limited solubility”. Consider ETWPRFIPYHALTQQTLKHQQHT, for which the “phage ELISA binding to BACE” value in data set [2] is “strong and specific binding”. For “Molecule Y1: peptide YPYFIPL (BMS-593925) with C-terminal Alexa488 label, FIG. 4 (Ac-YPYFIPL-Alexa488; also: linker between peptide and Alexa488 not given here)”, in data set [4] (in the presence of 10 μM OM99-2), the “enhancement of affinity in the presence of OM99-2” value worked out at 5 fold. Besides, the Kd in data set [4] (listed as Y1) is 58 nM and 57 nM. In addition, the “binding affinity for E. coli expressed (non-glycosylated) human BACE” value in data set [5] is on record as “the same as that of human BACE purified from CHO cells”. As to `CC(=O)N[C@@H](Cc1ccc(O)cc1)C(=O)N1CCC[C@H]1C(=O)N[C@@H](Cc1ccc(O)cc1)C(=O)N[C@@H](Cc1ccccc1)C(=O)N[C@@H](Cc1ccc(C(=O)c2ccccc2)cc1)C(=O)N1CCC[C@H]1C(=O)N[C@@H](CC(C)C)C(N)=O` [I9B] (Ac-YPYF[Bpa]PL-NH2), in data set [3], the solubility entry is given as “limited solubility”.

As to “Molecule Y3: analog of Molecule Y1 with different length of linker between Alexa488 and the peptide (Ac-YPYFIPL-Alexa488; also: linker between peptide and Alexa488 not given here)”, in data set [4], the Kd stood at 48 nM. In addition, the concentration for half-maximal inhibition (IC50) in data set [6] was found to be 731 nM.
